Results from paper PMC8319308.

Biological target: Gx-SB (protein G adapter domain fused to the small BiT fragment of split NanoLuc) (UniProt P06654)
Assay: other; 4C2-SB (SB1) conjugate with 19C7-LB; LB-SB affinity

Gx-LB (protein G adapter domain fused to the large BiT fragment of split NanoLuc) (from UniProt P06654)
Kd: 2.5 µM
